Data on 18 molecules can be found in patent publication US20220144927A1 (SUMITOMO DAINIPPON PHARMA, published 2022).

The target in assay [1] is T1, mucin subtype 5AC (human, UniProt P98088 28-5654, limits assumed).
T1 construct: Not a purified recombinant protein; also called MUC5AC; crude extract antigen solution
The assay can be described thus: ELISA, plate coated with crude extract antigen solution of SW1990 xenograft tumor, HRP anti-human IgG; reference antibody. The protocol: (§1) Various antibodies were added to a 96 well plate coated with various antigens, and the plate was left standing for 1 hr at room temperature. The plate was washed, a blocking solution was added, and the mixture was left standing for 30 min at room temperature. The plate was washed, HRP-conjugated anti-human IgG was added, and the mixture was left standing for 1 hr or longer at room temperature. The plate was washed, a color development reagent (Bethyl Laboratories, Inc.) was added, and the degree of color development was measured by a microplate reader (VersaMax, Molecular Devices, LLC.).
(§2) In Table 2 and Table 3, a tumor mass collected from a cancer-bearing model mouse transplanted with human pancreatic cancer cell line SW1990 was homogenized, and the supernatant (crude extract antigen solution) after centrifugation was used as an antigen. In Table 4, a mucin fraction obtained by isopycnic centrifugation using cesium chloride from the crude extract antigen solution was used as the antigen.
(In an ELISA, binding on a coated surface is turned into a signal by an enzyme label.)

The target of assay [2] is T1, mucin subtype 5AC. Briefly: ELISA, plate coated with mucin fraction (CsCl isopycnic centrifugation of SW1990 tumor crude extract), HRP anti-human IgG. The protocol: as §1, §2
In assay [3] the target is T1, mucin subtype 5AC. Briefly: ELISA, plate coated with crude extract antigen solution of SW1990 xenograft tumor, HRP anti-human IgG. On the procedure: as §1, §2

B1: antibody 1 (antibody, V domains shown)
VH: EVQLLESGGGLVQPGGSLRLSCAASGFTFSNYGMSWVRQAPGKGLEWVSTISNSGRYTYFPDSVKGRFTISRDNSKNTLYLQMNSLRAEDTALYYCTRHLDYANYDAMDYWGQGTLVTVSS
VL: DIVMTQSPSSLSASVGDRVTITCRASKSVTTSDFSYMHWYQQKPGKAPKLLIYLASNLESGVPSRFSGSGSGTDFTLTISSLQPEDFATYYCQHSREFPWTFGGGTKVEIK
notes: Humanized antibody of the invention; also called H01L01
In the case of B1, the “in vitro binding activity ratio to antibody 1” value with mucin subtype 5AC [1] was 1 fold vs antibody 1.

B2: antibody 19 (antibody, V domains shown)
VH: EVQLLESGGGLVQPGGSLRLSCAASGFTFSNYGMSWVRQAPGKGLEWVSTISNSGRYTYFPDSVKGRFTISRDNSKNTLYLQMNSLRAEDTAVYYCAKHLDYANYDAMDYWGQGTLVTVSS
VL: DIVMTQTPLSLSVTPGQPASISCRASKSVTTSDFSYMHWYLQKPGQPPQLLIYLASNLESGVPDRFSGSGSGTDFTLKISRVEAEDVGVYYCQHSREFPWTFGQGTKVEIK
notes: also called H05L07
Consider B2, for which the “in vitro binding activity ratio to antibody 20” value in the assay with mucin subtype 5AC [2] turned out to be 0.49 fold vs antibody 20.

B3: antibody 18 (antibody, V domains shown)
VH: EVQLVESGGGLVKPGGSLRLSCAASGFTFSNYGMSWVRQAPGKGLEWVSTISNSGRYTYFPDSVKGRFTISRDNAKNSLYLQMNSLRAEDTAVYYCARHLDYANYDAMDYWGQGTLVTVSS
VL: DIVMTQTPLSSPVTLGQPASISCRASKSVTTSDFSYMHWLQQRPGQPPRLLIYLASNLESGVPDRFSGSGAGTDFTLKISRVEAEDVGVYYCQHSREFPWTFGQGTKVEIK
notes: also called H06L06
B3: the “in vitro binding activity ratio to antibody 20” value in the assay with mucin subtype 5AC [2] was found to be 0.13 fold vs antibody 20.

B4: antibody 4 (antibody, V domains shown)
VH: EVQLLESGGGLVQPGGSLRLSCAASGFTFSNYGMSWVRQAPGKGLEWVSTISNSGRYTYFPDSVKGRFTISRDNSKNTLYLQMNSLRAEDTALYYCTRHLDYANYDAMDYWGQGTLVTVSS
VL: DIVMTQSPDSLAVSLGERATINCKASKSVTTSDFSYLHWYQQKPGQPPKLLIYLASNLESGVPDRFSGSGSGTDFTLTISSLQAEDVAVYYCQHSREFPWTFGGGTKLEIK
notes: Humanized antibody of the invention; also called H01L04
B4: in the assay with mucin subtype 5AC [3], the “in vitro binding activity ratio to antibody 1” value was 0.99 fold vs antibody 1. Further, in the assay with mucin subtype 5AC [2], the “in vitro binding activity ratio to antibody 20” value came out at 0.97 fold vs antibody 20.

B5: antibody 6 (antibody, V domains shown)
VH: LVQLVESGGGVVRPGGSLRLSCAASGFTFSNYGMSWIRQAPGKGLEWVSTISNSGRYTYFPDSVKGRFTISRDNAKNSLYLQMNSLRAEDTALYYCTRHLDYANYDAMDYWGQGTLVTVSS
VL: DVVMTQSPSTLSASVGDRVTITCRASKSVTTSDFSYMHWYQQKPGQAPKLLIYLASNLESGVPSRFSGSGSGTDFTLTISSLQPEDFATYYCQHSREFPWTFGQGTKLEIK
notes: Humanized antibody of the invention; also called H02L02
Consider B5, for which, in the assay with mucin subtype 5AC [3], the “in vitro binding activity ratio to antibody 1” value was found to be 0.71 fold vs antibody 1.

B6: antibody 17 (antibody, V domains shown)
VH: EVQLLESGGGLVQPGGSLRLSCAASGFTFSNYGMSWVRQAPGKGLEWVSTISNSGRYTYFPDSVKGRFTISRDNSKNTLYLQMNSLRAEDTAVYYCAKHLDYANYDAMDYWGQGTLVTVSS
VL: DIQMTQSPSSLAVSLGDRVTITCRASKSVTTSDFSYMHWYQQKPGLAPKLLIYLASNLESGVPSRFSGSGSGTDFTFTISSLQPEDIATYYCQHSREFPWTFGQGTKVEVK
notes: also called H05L05
For the molecule B6, in the assay with mucin subtype 5AC [2], the “in vitro binding activity ratio to antibody 20” value was 0.75 fold vs antibody 20.

B7: antibody 14 (antibody, V domains shown)
VH: EVQLLESGGGLVQPGGSLRLSCAVSGFTFSNYGMSWVRQAPGKGLEWVSTISNSGRYTYFPDSVKGRFTISRDNSRNTLYLQMNTLRAEDTAVYYCTRHLDYANYDAMDYWGQGTPVTVSS
VL: DVVMTQSPSTLSASVGDRVTITCRASKSVTTSDFSYMHWYQQKPGQAPKLLIYLASNLESGVPSRFSGSGSGTDFTLTISSLQPEDFATYYCQHSREFPWTFGQGTKLEIK
notes: Humanized antibody of the invention; also called H04L02
As for B7, in the assay with mucin subtype 5AC [3], the “in vitro binding activity ratio to antibody 9” value was found to be 1.04 fold vs antibody 9.

B8: antibody 2 (antibody, V domains shown)
VH: EVQLLESGGGLVQPGGSLRLSCAASGFTFSNYGMSWVRQAPGKGLEWVSTISNSGRYTYFPDSVKGRFTISRDNSKNTLYLQMNSLRAEDTALYYCTRHLDYANYDAMDYWGQGTLVTVSS
VL: DVVMTQSPSTLSASVGDRVTITCRASKSVTTSDFSYMHWYQQKPGQAPKLLIYLASNLESGVPSRFSGSGSGTDFTLTISSLQPEDFATYYCQHSREFPWTFGQGTKLEIK
notes: Humanized antibody of the invention; also called H01L02
As for B8, in the assay with mucin subtype 5AC [3], the “in vitro binding activity ratio to antibody 1” value was 1.03 fold vs antibody 1.

B9: antibody 12 (antibody, V domains shown)
VH: LVQLVESGGGVVQPGRSLRLSCAASGFTFSNYGMSWVRQAPGKGLEWVATISNSGRYTYFPDSVKGRFTISRDNSKNTLYLQMNSLRAEDTAVYYCTRHLDYANYDAMDYWGQGTLVTVSS
VL: DIVMTQSPDSLAVSLGERATINCKASKSVTTSDFSYLHWYQQKPGQPPKLLIYLASNLESGVPDRFSGSGSGTDFTLTISSLQAEDVAVYYCQHSREFPWTFGGGTKLEIK
notes: Humanized antibody of the invention; also called H03L04
Take B9: the “in vitro binding activity ratio to antibody 9” value with mucin subtype 5AC [3] was found to be 0.91 fold vs antibody 9.

B10: antibody 5 (antibody, V domains shown)
VH: LVQLVESGGGVVRPGGSLRLSCAASGFTFSNYGMSWIRQAPGKGLEWVSTISNSGRYTYFPDSVKGRFTISRDNAKNSLYLQMNSLRAEDTALYYCTRHLDYANYDAMDYWGQGTLVTVSS
VL: DIVMTQSPSSLSASVGDRVTITCRASKSVTTSDFSYMHWYQQKPGKAPKLLIYLASNLESGVPSRFSGSGSGTDFTLTISSLQPEDFATYYCQHSREFPWTFGGGTKVEIK
notes: Humanized antibody of the invention; also called H02L01
As for B10, the “in vitro binding activity ratio to antibody 1” value in the assay with mucin subtype 5AC [3] came out at 0.6 fold vs antibody 1.

B11: antibody 10 (antibody, V domains shown)
VH: LVQLVESGGGVVQPGRSLRLSCAASGFTFSNYGMSWVRQAPGKGLEWVATISNSGRYTYFPDSVKGRFTISRDNSKNTLYLQMNSLRAEDTAVYYCTRHLDYANYDAMDYWGQGTLVTVSS
VL: DVVMTQSPSTLSASVGDRVTITCRASKSVTTSDFSYMHWYQQKPGQAPKLLIYLASNLESGVPSRFSGSGSGTDFTLTISSLQPEDFATYYCQHSREFPWTFGQGTKLEIK
notes: Humanized antibody of the invention; also called H03L02
Consider B11, for which the “in vitro binding activity ratio to antibody 9” value with mucin subtype 5AC [3] came out at 0.96 fold vs antibody 9.

B12: antibody 13 (antibody, V domains shown)
VH: EVQLLESGGGLVQPGGSLRLSCAVSGFTFSNYGMSWVRQAPGKGLEWVSTISNSGRYTYFPDSVKGRFTISRDNSRNTLYLQMNTLRAEDTAVYYCTRHLDYANYDAMDYWGQGTPVTVSS
VL: DIVMTQSPSSLSASVGDRVTITCRASKSVTTSDFSYMHWYQQKPGKAPKLLIYLASNLESGVPSRFSGSGSGTDFTLTISSLQPEDFATYYCQHSREFPWTFGGGTKVEIK
notes: Humanized antibody of the invention; also called H04L01
For B12, the “in vitro binding activity ratio to antibody 9” value in the assay with mucin subtype 5AC [3] is 0.9 fold vs antibody 9.

B13: antibody 7 (antibody, V domains shown)
VH: LVQLVESGGGVVRPGGSLRLSCAASGFTFSNYGMSWIRQAPGKGLEWVSTISNSGRYTYFPDSVKGRFTISRDNAKNSLYLQMNSLRAEDTALYYCTRHLDYANYDAMDYWGQGTLVTVSS
VL: DIQMTQSPSSLSASVGDRVTITCRASKSVTTSDFSYMHWYQQKPGKSPKLLIYLASNLESGVPSRFSGSGSGTDFSLTISSLQPEDFATYYCQHSREFPWTFGGGTKVEIK
notes: Humanized antibody of the invention; also called H02L03
As to B13, in the assay with mucin subtype 5AC [3], the “in vitro binding activity ratio to antibody 1” value was determined as 0.65 fold vs antibody 1.

B14: antibody 16 (antibody, V domains shown)
VH: EVQLLESGGGLVQPGGSLRLSCAVSGFTFSNYGMSWVRQAPGKGLEWVSTISNSGRYTYFPDSVKGRFTISRDNSRNTLYLQMNTLRAEDTAVYYCTRHLDYANYDAMDYWGQGTPVTVSS
VL: DIVMTQSPDSLAVSLGERATINCKASKSVTTSDFSYLHWYQQKPGQPPKLLIYLASNLESGVPDRFSGSGSGTDFTLTISSLQAEDVAVYYCQHSREFPWTFGGGTKLEIK
notes: Humanized antibody of the invention; also called H04L04
Consider B14, for which the “in vitro binding activity ratio to antibody 9” value with mucin subtype 5AC [3] was 0.88 fold vs antibody 9. For the same molecule, the “in vitro binding activity ratio to antibody 20” value with mucin subtype 5AC [2] was determined as 1.09 fold vs antibody 20.

B15: antibody 8 (antibody, V domains shown)
VH: LVQLVESGGGVVRPGGSLRLSCAASGFTFSNYGMSWIRQAPGKGLEWVSTISNSGRYTYFPDSVKGRFTISRDNAKNSLYLQMNSLRAEDTALYYCTRHLDYANYDAMDYWGQGTLVTVSS
VL: DIVMTQSPDSLAVSLGERATINCKASKSVTTSDFSYLHWYQQKPGQPPKLLIYLASNLESGVPDRFSGSGSGTDFTLTISSLQAEDVAVYYCQHSREFPWTFGGGTKLEIK
notes: Humanized antibody of the invention; also called H02L04
With B15, the “in vitro binding activity ratio to antibody 1” value with mucin subtype 5AC [3] came out at 0.72 fold vs antibody 1. In addition, the “in vitro binding activity ratio to antibody 20” value with mucin subtype 5AC [2] was 0.7 fold vs antibody 20.

B16: antibody 3 (antibody, V domains shown)
VH: EVQLLESGGGLVQPGGSLRLSCAASGFTFSNYGMSWVRQAPGKGLEWVSTISNSGRYTYFPDSVKGRFTISRDNSKNTLYLQMNSLRAEDTALYYCTRHLDYANYDAMDYWGQGTLVTVSS
VL: DIQMTQSPSSLSASVGDRVTITCRASKSVTTSDFSYMHWYQQKPGKSPKLLIYLASNLESGVPSRFSGSGSGTDFSLTISSLQPEDFATYYCQHSREFPWTFGGGTKVEIK
notes: Humanized antibody of the invention; also called H01L03
With B16, the “in vitro binding activity ratio to antibody 1” value in the assay with mucin subtype 5AC [3] was determined as 0.99 fold vs antibody 1. In addition, the “in vitro binding activity ratio to antibody 20” value with mucin subtype 5AC [2] is 1.56 fold vs antibody 20.

B17: antibody 15 (antibody, V domains shown)
VH: EVQLLESGGGLVQPGGSLRLSCAVSGFTFSNYGMSWVRQAPGKGLEWVSTISNSGRYTYFPDSVKGRFTISRDNSRNTLYLQMNTLRAEDTAVYYCTRHLDYANYDAMDYWGQGTPVTVSS
VL: DIQMTQSPSSLSASVGDRVTITCRASKSVTTSDFSYMHWYQQKPGKSPKLLIYLASNLESGVPSRFSGSGSGTDFSLTISSLQPEDFATYYCQHSREFPWTFGGGTKVEIK
notes: Humanized antibody of the invention; also called H04L03
Take B17: in the assay with mucin subtype 5AC [3], the “in vitro binding activity ratio to antibody 9” value is 1.36 fold vs antibody 9.

B18: antibody 11 (antibody, V domains shown)
VH: LVQLVESGGGVVQPGRSLRLSCAASGFTFSNYGMSWVRQAPGKGLEWVATISNSGRYTYFPDSVKGRFTISRDNSKNTLYLQMNSLRAEDTAVYYCTRHLDYANYDAMDYWGQGTLVTVSS
VL: DIQMTQSPSSLSASVGDRVTITCRASKSVTTSDFSYMHWYQQKPGKSPKLLIYLASNLESGVPSRFSGSGSGTDFSLTISSLQPEDFATYYCQHSREFPWTFGGGTKVEIK
notes: Humanized antibody of the invention; also called H03L03
For the molecule B18, the “in vitro binding activity ratio to antibody 9” value with mucin subtype 5AC [3] is 1.25 fold vs antibody 9.
